Results: US20190233539A1

How the values were obtained:
Assay in all cases: BIAcore SPR, koff against wild-type Fc
CD32B (FcγRII-B) = CD32B (FcγRII-B) (UniProt P31994)
CD32A^H = CD32A^H (UniProt P12318)
[1] = target: CD16A with Phe at position 158 (human) (UniProt P08637)
[2] = target: CD16A with Val at position 158 (human) (UniProt P08637)
Sequence of CD16A with Val at position 158 (human) (P08637 17-208 F176V limits assumed): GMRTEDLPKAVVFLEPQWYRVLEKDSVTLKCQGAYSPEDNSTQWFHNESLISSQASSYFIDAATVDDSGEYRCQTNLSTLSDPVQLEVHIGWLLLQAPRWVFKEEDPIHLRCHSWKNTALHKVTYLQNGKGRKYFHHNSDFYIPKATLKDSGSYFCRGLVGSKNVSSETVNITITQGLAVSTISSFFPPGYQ

Sequence of CD16A with Phe at position 158 (human) (P08637 17-208 limits assumed): as the sequence (P08637 17-208 F176V limits assumed) above, with V160F counted along it
Sequence of CD32B (FcγRII-B) (P31994 43-217 limits assumed): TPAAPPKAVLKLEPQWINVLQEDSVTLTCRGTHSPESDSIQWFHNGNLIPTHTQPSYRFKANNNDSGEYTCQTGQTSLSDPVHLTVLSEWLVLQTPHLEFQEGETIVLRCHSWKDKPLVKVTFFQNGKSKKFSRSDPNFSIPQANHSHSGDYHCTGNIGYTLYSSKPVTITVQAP
Sequence of CD32A^H (P12318 34-217 limits assumed): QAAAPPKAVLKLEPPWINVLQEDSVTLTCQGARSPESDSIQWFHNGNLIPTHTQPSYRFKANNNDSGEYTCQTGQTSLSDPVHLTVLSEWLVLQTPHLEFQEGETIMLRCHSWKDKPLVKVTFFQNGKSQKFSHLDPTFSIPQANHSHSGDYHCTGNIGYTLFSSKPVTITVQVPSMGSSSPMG

Substance | WT koff/mutant koff (CD32B (FcγRII-B)) | WT koff/mutant koff (CD32A^H) | WT koff/mutant koff [1] | WT koff/mutant koff [2]
Fc mutant 17 (F243L, R292P, V305I, P396L) | 0.4 | 0.8 | 2.3 | 4
Fc mutant 8 (P396L) | 2.6 | 1.6 |  | 1.3
Fc mutant 9 (F243L, P396L) | 1.6 | 1.5 |  | 
Fc mutant 2 (D270E) | 0.4 | 2.2 |  | 1.3
Fc mutant 11 (R292P, V305I) | 0.4 | 0.8 |  | 
Fc mutant 6 (V305I) | 1.2 | 1.3 | 0.6 | 0.9
Fc mutant 15 (R292P, V305I, P396L) | 0.9 | 1.5 | 1.9 | 1.9
Fc mutant 4 (S298N) | 0.2 |  |  | 
Fc mutant 1 (F243L) | 0.8 | 0.6 |  | 4.8
Fc mutant 3 (R292P) | 0.3 | 0.7 | 1.6 | 2.4
Fc mutant 7 (A330V) | 0.3 | 0.4 | 1.2 | 0.6
Fc mutant 18 (F243L, R292P, Y300L, V305I, P396L) | 1.4 | 3.2 | 8.3 | 10.1
Fc mutant 16 (F243L, R292P, Y300L, P396L) | 1.1 | 1.7 | 5.6 | 10.1
Fc mutant 12 (F243L, R292P, Y300L) | 0.6 | 1 | 4.6 | 7.4
Fc mutant 14 (F243L, R292P, P396L) | 0.4 | 1.4 |  | 6.3
Fc mutant 10 (F243L, R292P) | 0.2 | 0.5 |  | 4
Fc mutant 5 (Y300L) | 1.2 | 2.9 | 1.2 | 
Fc mutant 13 (F243L, R292P, V305I) | 0.1 | 0.2 | 1.4 | 2.6
